Assay type in all cases: binding
The nature of data set [1]: Indirect antibody ELISA on 5-FU-BSA coated plates, competition with 5-FU. On the procedure:
(§1) In this experiment, antibody capture reagents were 5-FU BSA conjugates modified at the 5-FU position 1 with either 3-carbon or 5-carbon linkers. 5-FU was conjugated to BSA by mixing 1-5C-5-FU-NHS ester with BSA at a challenge ratio of 12:1 (molar ratios of 1-5C-5-FU-NHS to BSA) in a phosphate buffer containing a phosphate buffered saline containing 10.5 mM KH2PO4, 139.5 mM K2HPO4 and 150.6 mM NaCl, =pH 7.7-7.9 (typically pH 7.8) for 1 hour or more incubation at room temperature (typically 1 hour incubation at room temperature). After the incubation, unbound 1-5C-5-FU-NHS ester was removed by 3 buffer exchanges in an AmiconUltra4-30K filter (Millipore, Cat#UFC803024). BSA conjugated with 5-FU (5-FU-BSA) was concentrated and stored in the same phosphate buffer (pH 7.8).
This indirect antibody ELISA assay 5-FU assay was constructed using either 1-3C-5-FU-BSA or 1-5C-5-FU-BSA as antibody capture reagent and a horseradish perioxidase (HRP) conjugated goat anti-mouse antibody as the antibody detector reagent. The binding of 5-FU antibody was detected with 3,3,5,5-TetraMethylBenzidine (TMB) as the HRP enzyme substrate. The 5-FU ELISA assay signal (OD450) decreased proportionally to the increasing concentration of 5-FU. The 5-FU IC50 and tegafur cross-reactivity were determined as in the previous section. […]

Data set [2] in a line: Indirect antibody ELISA, cross-reactivity with tegafur. Conditions: (IC50 for 5-FU/IC50 for testing chemical)%. On the procedure:
as §1, with “BSA conjugated with 5-FU (5-FU-BSA) was concentrated and stored in the same phosphate buffer (pH 7.8).” left out
This indirect antibody ELISA assay 5-FU assay was constructed using either 1-3C-5-FU-BSA or 1-5C-5-FU-BSA as antibody capture reagent and a horseradish perioxidase (HRP) conjugated goat anti-mouse antibody as the antibody detector reagent. The binding of 5-FU antibody was detected with 3,3,5,5-TetraMethylBenzidine (TMB) as the HRP enzyme substrate. […] The 5-FU IC50 and tegafur cross-reactivity were determined as in the previous section. […]
In addition to tegafur, several 5-FU structurally related chemicals were also evaluated for their cross-reactivity to the antibodies generated with 5-FU conjugate with the 3-carbon linker and were summarized below in Table 3. […]
A general note: ELISA stands for enzyme-linked immunosorbent assay.

A short description of data set [3]: Indirect antibody ELISA, cross-reactivity with DH-5-FU. The note with it: Table 3; (IC50 for 5-FU/IC50 for testing chemical)%. An excerpt: (§2) This indirect antibody ELISA assay 5-FU assay was constructed using either 1-3C-5-FU-BSA or 1-5C-5-FU-BSA as antibody capture reagent and a horseradish perioxidase (HRP) conjugated goat anti-mouse antibody as the antibody detector reagent. The binding of 5-FU antibody was detected with 3,3,5,5-TetraMethylBenzidine (TMB) as the HRP enzyme substrate. The 5-FU ELISA assay signal (OD450) decreased proportionally to the increasing concentration of 5-FU. The 5-FU IC50 and tegafur cross-reactivity were determined as in the previous section.
(§3) In addition to tegafur, several 5-FU structurally related chemicals were also evaluated for their cross-reactivity to the antibodies generated with 5-FU conjugate with the 3-carbon linker and were summarized below in Table 3. […] However, antibody 36H11 was highly specific for 5-FU and was detected for about 12% or lower cross-reactivity with tegafur.

The nature of data set [4]: Indirect antibody ELISA, cross-reactivity with uracil. The note with it: Table 3; (IC50 for 5-FU/IC50 for testing chemical)%.
Excerpt: as §2, §3

A short description of data set [5]: Indirect antibody ELISA, cross-reactivity with cytosine. The note with it: Table 3; (IC50 for 5-FU/IC50 for testing chemical)%.
Excerpt: as §2, §3

Data set [6] is described as follows: Indirect antibody ELISA, cross-reactivity with thymine. The note with it: Table 3; (IC50 for 5-FU/IC50 for testing chemical)%.
Excerpt: as §2, §3

Data set [7] in a line: Hybridoma supernatant competition test in ECL bridging assay. The note with it: hybridoma culture supernatant; signal decreased in the presence of low level of 5-FU. The procedure: Hybridomas were screened between days 10-14 for the secretion of 5-FU antibody by the 5-FU antibody assay (Bridging-assay) described before. 25 μL of culture supernatant were transferred to an assay plate and mixed with 50 μL of 5-FU antibody assay master mix containing 100 ng/mL of each Bi-1-3C-5-FU-BSA and TAG Plus 1-3C-5-FU-BSA in 200 μg/mL of M280-SA beads. Samples were incubated for 30 minutes with shaking. Beads were recovered and resuspended in 150 μL of DILUENT and read in an M384 analyzer with 100 μL draw volume. Hybridomas identified from plates with greater than 20% of growing wells were re-cloned by limiting dilution in 96-well plate at 0.3 and 1.0 cells/well.
5-FU antibody specificity and cross-reactivity was tested on hybridomas that were identified as positive for 5-FU binding. […]
Typically, 25 μL of culture supernatant were mixed with 50 μL of 5-FU assay master mix containing 100 ng/mL of each Bi-1-3C-5-FU-BSA and TAG Plus 1-3C-5-FU-BSA in 200 μg/mL of M280-SA beads with or without competing chemicals. […] Beads were recovered and resuspended in 150 μL of DILUENT and read in an M384 analyzer with 100 μL draw volume.
X_RCT=cross-reactivity (calculated 5-FU concentration/10 μg/mL).

Data set [8] is described as follows: ECL assay with TAG Plus mAb as detector and position-3 modified 5-FU capture reagent. Conditions: Bi-3-5C-5-FU-HSA pre-bound M280-SA beads. The procedure: Unless otherwise specifically mentioned, a 5-FU immunoassay was set up by mixing the same volumes of sample with capture reagent first and then with detector reagent in a 96 well plate. After adding reagents, samples were mixed for 5 minutes at room temperature with shaking. After the incubation, beads were recovered by attaching a plate magnet to the assay plate for 2 minutes and resuspending in 150 μL of DILUENT. Samples were either read in an M384 or an M1MR analyzer with 100 μL draw volume under the 96 standard round plate protocol.
The performance of TAG Plus conjugated antibody 61C6 as an assay detector reagent was studied. Assay performance was evaluated in 5-FU Antibody Screening Buffer with a 5-fold 5-FU serial dilution curve from 150 μg/mL to 9.6 ng/mL as 5-FU calibrators (samples).
A total of 5 capture reagents were evaluated in this experiment. Three capture reagents were 5-FU bound to M280-SA beads through biotinylated BSA including Bi-1-3C-5-FU-BSA, Bi-1-5C-5-FU-BSA and Bi-3-5C-5-FU-HSA pre-bound to M280-SA beads at the ratio of 1.0 μg capture reagent per mg beads (200 μg/mL). […]
The assay detector reagent used was TAG Plus 5-FU mAb 61C6 at the concentration of 2.0 μg/mL. […] The plate was read in an M384 ECL Analyzer with a draw volume of 100 μL under 96 standard plate protocol. […]

B1: mAb 61C6: monoclonal anti-5-FU antibody, IgG2b κ; heavy chain SEQ ID NO:2, light chain SEQ ID NO:6; from 3-carbon linker immunogen (antibody, listed as Mus musculus)
heavy: MDWLWNLLFLMAAAQSIQAQIQLVQSGPELKKPGETVTISCKASGYTLTNYGMNWVKQAPGKGLKWMGWINTNSGEPTYVEEFKGRFAFSLETSVSTVYLQISDLKHEDTATYFCARWGPHFNAYGWFAYWGQGTLVTVSAAKTTPPSVYPLAPGCGDTTGSSVTLGCLVKGYFPESVTVTWNSGSLSSSVHTFPALLQSGLYTMSSSVTVPSSTWPSQTVTCSVAHPASSTTVDKKLEPSGPISTINPCPPCKECHKCPAPNLEGGPSVFIFPPNIKDVLMISLTPKVTCVVVDVSEDDPDVQISWFVNNVEVHTAQTQTHREDYNSTIRVVSTLPIQHQDWMSGKEFKCKVNNKDLPSPIERTISKIKGLVRAPQVYILPPPAEQLSRKDVSLTCLVVGFNPGDISVEWTSNGHTEENYKDTAPVLDSDGSYFIYSKLNMKTSKWEKTDSFSCNVRHEGLKNYYLKKTISRSPGK
light: MMSSAQFLGLLLLCFQGTRCYIQMTQTASSLSASLGDRVTISCRASQDIWNYLNWYQQKPDGTIKLLIYYKSRLHSGVPSRFSGSGSGIDFSLTISNLEQEDFATYFCQQGHTLPWTFGGGSKLEIKRADAAPTVSIFPPSSEQLTSGGASVVCFLNNFYPKDINVKWKIDGSERQNGVLNSWTDQDSKDSTYSMSSTLTLTKDEYERHNSYTCEATHKTSTSPIVKSFNRNEC
notes: monoclonal anti-5-FU antibody, IgG2b κ; from 3-carbon linker immunogen
Turning to B1, in data set [1] (Table 3, (IC50 for 5-FU/IC50 for testing chemical)%, reference), the “Cross-reactivity 5-FU” value is listed as 100%. Moreover, the “Ratio of IC50 on 5-FU Conjugates with 5-carbon Linker vs. 3-carbon Linker” value in data set [1] (indirect ELISA, 5-FU IC50 on 5-carbon vs 3-carbon linker 5-FU conjugate) is recorded as 4.7. The “Cross-reactivity Tegafur” value in data set [2] (Table 3) stood at 28%. Moreover, the “Tegafur Cross-reactivity**” value in data set [2] (indirect ELISA) is on record as 28%. Moreover, the “Cross-reactivity DH-5-FU” value in data set [3] came to 1.4%. Also, the “Cross-reactivity Uracil” value in data set [4] is recorded as 1.4%. Also, in data set [5], the “Cross-reactivity Cytosine” value worked out at 0.57%. In data set [6], the “Cross-reactivity Thymine” value is given as “Undetectble”. The “specificity to 5-FU” value in data set [7] is “better specificity to 5-FU”. Moreover, in data set [8], the “reactivity with position 3 modified 5-FU (3-5C-5-FU-HSA) capture reagent” value was “reactive”.

Values taken from patent publication US9702869B2, “Assays, antibodies, immunogens and compositions related to 5-FU” (WELLSTAT DIAGNOSTICS, LLC, priority 2011, dated 2017).
